Results from article PMC10359466.

Columns and labels:
[1] = biological target: T1, TbRPA1 DBD-AB (Trypanosoma brucei, UniProt Q384B5 1-257); assay: MST; 20 mM Tris pH 7.5, 10 mM NaCl, 10 mM MgCl2, 2 mM DTT, 10% glycerol, 0.1 mg/ml BSA, 15 min, room temperature; EMSA 2 nM probe (gel at 4 C), MST 10 nM probe; conditions: protein: recombinant; tags: N-term 6xHis (pET28a); label: 5' Cy5 (MST) or 5' IRDye800 (EMSA); single strand
T1 sequence: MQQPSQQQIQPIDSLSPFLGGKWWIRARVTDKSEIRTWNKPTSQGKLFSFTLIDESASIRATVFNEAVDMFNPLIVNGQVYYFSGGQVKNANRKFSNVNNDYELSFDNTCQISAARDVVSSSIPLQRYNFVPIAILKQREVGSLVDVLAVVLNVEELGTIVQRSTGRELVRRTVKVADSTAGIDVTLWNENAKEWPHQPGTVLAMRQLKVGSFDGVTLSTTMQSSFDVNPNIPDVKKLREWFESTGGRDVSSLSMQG

[2] = biological target: HsRPA1 DBD-AB (Homo sapiens, UniProt P27694 181-427); assay: as above; conditions: protein: recombinant; tags: 6xHis (pET28a); label: 5' Cy5 (MST) or 5' IRDye800 (EMSA); single strand
[3] = biological target: TcRPA1 DBD-AB T105S (Trypanosoma cruzi, UniProt Q4DXC9 2-257, T105S); assay: as above; conditions: protein: recombinant; tags: N-term 6xHis; label: 5' Cy5 (MST) or 5' IRDye800 (EMSA); single strand
[4] = biological target: TbRPA1 DBD-AB S105T (Trypanosoma brucei, UniProt Q384B5 1-257, S105T); assay: as above; conditions: protein: recombinant; tags: N-term 6xHis; label: 5' Cy5 (MST) or 5' IRDye800 (EMSA); single strand
[5] = biological target: TbRPA1 DBD-AB W188A (Trypanosoma brucei, UniProt Q384B5 1-257, W188A); assay: EMSA, MST; 20 mM Tris pH 7.5, 10 mM NaCl, 10 mM MgCl2, 2 mM DTT, 10% glycerol, 0.1 mg/ml BSA, 15 min, room temperature; EMSA 2 nM probe (gel at 4 C), MST 10 nM probe; conditions: protein: recombinant; tags: N-term 6xHis; label: 5' Cy5 (MST) or 5' IRDye800 (EMSA); single strand
[6] = biological target: TbRPA1 DBD-AB F64A (Trypanosoma brucei, UniProt Q384B5 1-257, F64A); assay: as above; conditions: protein: recombinant; tags: N-term 6xHis; label: 5' Cy5 (MST) or 5' IRDye800 (EMSA); single strand

Sequence of HsRPA1 DBD-AB (P27694 181-427): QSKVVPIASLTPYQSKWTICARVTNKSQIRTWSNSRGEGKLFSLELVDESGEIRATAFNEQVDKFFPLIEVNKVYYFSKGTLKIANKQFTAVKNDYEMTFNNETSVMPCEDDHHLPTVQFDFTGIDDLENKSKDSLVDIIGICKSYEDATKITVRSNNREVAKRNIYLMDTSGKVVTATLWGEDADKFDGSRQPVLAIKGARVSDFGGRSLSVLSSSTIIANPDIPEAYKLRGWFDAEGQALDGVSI

Row | Binder | Kd [1] [nM] | Kd [2] [nM] | Kd [3] [nM] | Kd [4] [nM] | binding result [5] | binding result [6]
1 | TTTTTTTTTTTTTTTTTTTT (ssDNA) [dT20] | 30.5 |  |  |  |  | 
2 | TTTTTTTTTTTTTTTTTTTTTTTTTTTTTTTT (ssDNA) [dT32] | 24.6 ± 12.4 | 48 ± 37.4 | 52.4 ± 27.9 | 21.9 ± 2.7 | no binding | no binding
